# Target: amyloid beta-protein 40 (Aβ40) (human) (UniProt P05067)
substance,measurement,value
plasminogen isolated and purified from plasma of a human donator (enzyme),Aβ40 content by Tricine-SDS-PAGE with quantitative scanning (solvent control defined as 100%),74.8%
